This note sets out measurements from US20250361525, “AAV VECTORS FOR GENE EDITING” (Scribe Therapeutics Inc., published 2025).

T1: CasX variant 515 (synthetic construct)
T1 chain: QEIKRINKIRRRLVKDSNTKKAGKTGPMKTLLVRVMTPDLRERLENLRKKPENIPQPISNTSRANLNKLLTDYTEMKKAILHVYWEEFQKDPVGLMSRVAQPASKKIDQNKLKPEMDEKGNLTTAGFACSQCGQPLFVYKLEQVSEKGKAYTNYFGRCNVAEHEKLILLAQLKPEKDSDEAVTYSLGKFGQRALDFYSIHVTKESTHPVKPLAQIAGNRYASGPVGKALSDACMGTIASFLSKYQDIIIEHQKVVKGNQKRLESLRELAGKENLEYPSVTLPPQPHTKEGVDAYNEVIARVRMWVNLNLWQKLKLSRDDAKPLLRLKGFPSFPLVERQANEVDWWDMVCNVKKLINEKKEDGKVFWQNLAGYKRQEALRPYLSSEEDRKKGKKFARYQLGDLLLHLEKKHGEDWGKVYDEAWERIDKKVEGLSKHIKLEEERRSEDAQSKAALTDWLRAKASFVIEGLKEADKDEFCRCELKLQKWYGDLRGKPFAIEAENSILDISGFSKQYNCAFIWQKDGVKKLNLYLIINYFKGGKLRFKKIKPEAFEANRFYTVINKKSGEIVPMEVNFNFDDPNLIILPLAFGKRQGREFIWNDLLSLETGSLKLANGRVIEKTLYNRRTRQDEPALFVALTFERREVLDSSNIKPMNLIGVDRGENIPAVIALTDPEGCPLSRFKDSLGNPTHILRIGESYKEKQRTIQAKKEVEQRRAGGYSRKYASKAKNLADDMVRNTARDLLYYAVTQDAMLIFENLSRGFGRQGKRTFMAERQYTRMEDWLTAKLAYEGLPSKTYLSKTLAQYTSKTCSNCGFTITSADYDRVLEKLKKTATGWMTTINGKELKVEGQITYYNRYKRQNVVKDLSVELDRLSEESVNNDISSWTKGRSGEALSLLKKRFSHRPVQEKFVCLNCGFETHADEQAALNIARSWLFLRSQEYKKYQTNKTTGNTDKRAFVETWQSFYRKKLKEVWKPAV

B1: sgRNA 2.7.37 ; 7.37 target (ssRNA ; dsDNA)
RNA: UACUGGCGCUUUUAUCUCAUUACUUUGAGAGCCAUCACCAGCGACUAUGUCGUAUGGGUAAAGCGCUUAUUUAUCGGAGAGAAAUCCGAUAAAUAAGAAGCAUCAAAGGGCCGAGAUGUCUCGCUCCG
DNA 1: TGAAGCTGACAGCATTCGGGCCGAGATGTCTCGCTCCGTGGCCTTAGCTGTGCTCGCGCT
DNA 2: AGCGCGAGCACAGCTAAGGCCACGGAGCGAGACATCTCGGCCCGAATGCTGTCAGCTTCA
modifications: 5' amino modifier C6
B2: sgRNA 316.7.37 ; 7.37 target (ssRNA ; dsDNA)
RNA: ACUGGCGCUUCUAUCUGAUUACUCUGAGCGCCAUCACCAGCGACUAUGUCGUAGUGGGUAAAGCUCCCUCUUCGGAGGGAGCAUCAGAGGGCCGAGAUGUCUCGCUCCG
DNA 1: B1 DNA 1
DNA 2: B1 DNA 2
modifications: 5' amino modifier C6
B3: sgRNA 174.7.37 ; 7.37 target (ssRNA ; dsDNA)
RNA: B2 RNA with C11U, C24U, C29A, G87A
DNA 1: B1 DNA 1
DNA 2: B1 DNA 2
modifications: 5' amino modifier C6
B4: sgRNA 235.7.37 ; 7.37 target (ssRNA ; dsDNA)
RNA: ACUGGCGCUUCUAUCUGAUUACUCUGAGCGCCAUCACCAGCGACUAUGUCGUAGUGGGUAAAGCCGCUUACGGACUUCGGUCCGUAAGAGGCAUCAGAGGGCCGAGAUGUCUCGCUCCG
DNA 1: B1 DNA 1
DNA 2: B1 DNA 2
modifications: 5' amino modifier C6
B5: sgRNA 2.7.9 ; 7.9 target (ssRNA ; dsDNA)
RNA: UACUGGCGCUUUUAUCUCAUUACUUUGAGAGCCAUCACCAGCGACUAUGUCGUAUGGGUAAAGCGCUUAUUUAUCGGAGAGAAAUCCGAUAAAUAAGAAGCAUCAAAGGUGUAGUACAAGAGAUAGAA
DNA 1: TTTCAGTGGGGGTGAATTCAGTGTAGTACAAGAGATAGAAAGACCAGTCCTTGCTGAAAG
DNA 2: CTTTCAGCAAGGACTGGTCTTTCTATCTCTTGTACTACACTGAATTCACCCCCACTGAAA
modifications: 5' amino modifier C6
B6: sgRNA 174.7.9 ; 7.9 target (ssRNA ; dsDNA)
RNA: ACUGGCGCUUUUAUCUGAUUACUUUGAGAGCCAUCACCAGCGACUAUGUCGUAGUGGGUAAAGCUCCCUCUUCGGAGGGAGCAUCAAAGGUGUAGUACAAGAGAUAGAA
DNA 1: B5 DNA 1
DNA 2: B5 DNA 2
modifications: 5' amino modifier C6
B7: sgRNA 316.7.9 ; 7.9 target (ssRNA ; dsDNA)
RNA: B6 RNA with U11C, U24C, A29C, A87G
DNA 1: B5 DNA 1
DNA 2: B5 DNA 2
modifications: 5' amino modifier C6
B8: sgRNA 235.7.9 ; 7.9 target (ssRNA ; dsDNA)
RNA: ACUGGCGCUUCUAUCUGAUUACUCUGAGCGCCAUCACCAGCGACUAUGUCGUAGUGGGUAAAGCCGCUUACGGACUUCGGUCCGUAAGAGGCAUCAGAGGUGUAGUACAAGAGAUAGAA
DNA 1: B5 DNA 1
DNA 2: B5 DNA 2
modifications: 5' amino modifier C6

Residue numbers refer to the chain shown, from its start.

The target in this series is T1, CasX variant 515. Description: cleavage_in_vitro.
Molecule B1 displayed an activity of 0.0204 s⁻¹. To B2 belongs 0.0851 s⁻¹. To B3 belongs 0.0534 s⁻¹; to B4, 0.0647 s⁻¹; to B5, 0.135 s⁻¹. Regarding B6, the activity came to 0.172 s⁻¹. For B7, the activity came out at 0.141 s⁻¹. To B8 belongs 0.17 s⁻¹.
